In patent publication US20240261333A1, “NOVEL TARGETS FOR ENHANCING ANTI-TUMOR IMMUNITY” (THE BROAD INSTITUTE, INC., priority 2021, published 2024):

Experiments:
ARPC4 (human) = ARPC4 (human) (UniProt P59998); test: co-IP, anti-FLAG, lysate of cells with C-FLAG B3GNT2; mass spectrometry
RPL4 (human) = RPL4 (human) (UniProt P36578); test: as above
CSE1L (human) = CSE1L (human) (UniProt P55060); test: as above
RPL10 (human) = RPL10 (human) (UniProt P27635); test: as above
KRT4 (human) = KRT4 (human) (UniProt P19013); test: as above
RPL13 (human) = RPL13 (human) (UniProt P26373); test: as above
HADHB (human) = HADHB (human) (UniProt P55084); test: as above
SPTAN1 (human) = SPTAN1 (human) (UniProt Q13813); test: as above
EIF5B (human) = EIF5B (human) (UniProt O60841); test: as above
HSPA8 (human) = HSPA8 (human) (UniProt P11142); test: as above
PARP1 (human) = PARP1 (human) (UniProt P09874); test: as above
MYO1C (human) = MYO1C (human) (UniProt O00159); test: co-IP with anti-FLAG, mass spectrometry; lysate of cells with C-FLAG B3GNT2
EPRS (human) = EPRS (human) (UniProt P07814); test: as above
RRP12 (human) = RRP12 (human) (UniProt Q5JTH9); test: as above
MSN (human) = MSN (human) (UniProt P26038); test: as above
STAU2 (human) = STAU2 (human) (UniProt Q9NUL3); test: as above
RPS4X (human) = RPS4X (human) (UniProt P62701); test: as above
TOR1AIP2 (human) = TOR1AIP2 (human) (UniProt Q8NFQ8); test: as above
SEL1L (human) = SEL1L (human) (UniProt Q9UBV2); test: as above
IPO13 (human) = IPO13 (human) (UniProt O94829); test: as above
SDF4 (human) = SDF4 (human) (UniProt Q9BRK5); test: as above
MAGT1 (human) = MAGT1 (human) (UniProt Q9H0U3); test: as above
SLC25A5 (human) = SLC25A5 (human) (UniProt P05141); test: as above
CCT2 (human) = CCT2 (human) (UniProt P78371); test: as above
GANAB (human) = GANAB (human) (UniProt Q14697); test: as above
ILF3 (human) = ILF3 (human) (UniProt Q12906); test: as above
ARHGEF2 (human) = ARHGEF2 (human) (UniProt Q92974); test: as above
RARS (human) = RARS (human) (UniProt P54136); test: as above
RARS (human), sequence (P54136 whole entry): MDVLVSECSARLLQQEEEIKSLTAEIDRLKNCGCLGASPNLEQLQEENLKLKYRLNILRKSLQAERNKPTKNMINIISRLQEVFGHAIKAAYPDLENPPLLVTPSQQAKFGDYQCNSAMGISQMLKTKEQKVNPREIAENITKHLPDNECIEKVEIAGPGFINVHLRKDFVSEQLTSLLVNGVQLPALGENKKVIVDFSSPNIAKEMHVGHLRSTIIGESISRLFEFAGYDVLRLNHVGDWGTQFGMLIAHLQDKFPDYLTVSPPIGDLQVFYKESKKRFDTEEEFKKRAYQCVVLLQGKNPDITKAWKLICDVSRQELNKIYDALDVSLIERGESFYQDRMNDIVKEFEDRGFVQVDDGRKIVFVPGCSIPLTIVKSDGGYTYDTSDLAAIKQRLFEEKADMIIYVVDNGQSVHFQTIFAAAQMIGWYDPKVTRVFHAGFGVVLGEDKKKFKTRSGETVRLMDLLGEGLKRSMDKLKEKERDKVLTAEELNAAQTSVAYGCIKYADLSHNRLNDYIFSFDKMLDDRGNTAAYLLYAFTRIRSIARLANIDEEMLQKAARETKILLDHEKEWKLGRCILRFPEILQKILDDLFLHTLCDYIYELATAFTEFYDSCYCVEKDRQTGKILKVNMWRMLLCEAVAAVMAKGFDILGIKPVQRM

PARP1 (human), sequence (P09874 2-1014 limits assumed): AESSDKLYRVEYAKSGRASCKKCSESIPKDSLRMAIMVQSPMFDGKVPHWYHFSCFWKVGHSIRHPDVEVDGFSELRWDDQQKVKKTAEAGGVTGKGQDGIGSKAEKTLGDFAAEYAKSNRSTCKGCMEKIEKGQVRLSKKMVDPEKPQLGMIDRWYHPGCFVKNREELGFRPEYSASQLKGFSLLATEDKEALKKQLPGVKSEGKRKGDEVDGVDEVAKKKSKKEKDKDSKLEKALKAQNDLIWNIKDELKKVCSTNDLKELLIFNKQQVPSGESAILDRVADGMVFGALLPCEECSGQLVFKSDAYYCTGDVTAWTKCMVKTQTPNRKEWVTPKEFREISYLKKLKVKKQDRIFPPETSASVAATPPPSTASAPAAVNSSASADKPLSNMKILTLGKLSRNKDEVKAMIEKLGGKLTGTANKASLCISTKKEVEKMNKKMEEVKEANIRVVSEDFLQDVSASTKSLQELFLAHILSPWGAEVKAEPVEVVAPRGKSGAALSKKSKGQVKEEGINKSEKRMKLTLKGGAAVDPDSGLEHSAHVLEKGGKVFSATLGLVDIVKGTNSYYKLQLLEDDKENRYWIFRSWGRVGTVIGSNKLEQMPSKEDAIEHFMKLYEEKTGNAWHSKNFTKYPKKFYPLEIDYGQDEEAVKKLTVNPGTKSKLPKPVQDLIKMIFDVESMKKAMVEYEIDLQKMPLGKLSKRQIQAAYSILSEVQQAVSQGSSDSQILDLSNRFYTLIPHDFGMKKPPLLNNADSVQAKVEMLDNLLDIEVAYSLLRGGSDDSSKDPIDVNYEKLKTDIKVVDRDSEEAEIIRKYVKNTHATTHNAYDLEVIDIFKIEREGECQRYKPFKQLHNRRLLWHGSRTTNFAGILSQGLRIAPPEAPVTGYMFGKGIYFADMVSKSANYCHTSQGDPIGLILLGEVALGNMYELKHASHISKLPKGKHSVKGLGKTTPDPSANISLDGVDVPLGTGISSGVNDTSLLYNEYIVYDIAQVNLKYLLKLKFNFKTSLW
CCT2 (human), sequence (P78371 48-535 limits assumed): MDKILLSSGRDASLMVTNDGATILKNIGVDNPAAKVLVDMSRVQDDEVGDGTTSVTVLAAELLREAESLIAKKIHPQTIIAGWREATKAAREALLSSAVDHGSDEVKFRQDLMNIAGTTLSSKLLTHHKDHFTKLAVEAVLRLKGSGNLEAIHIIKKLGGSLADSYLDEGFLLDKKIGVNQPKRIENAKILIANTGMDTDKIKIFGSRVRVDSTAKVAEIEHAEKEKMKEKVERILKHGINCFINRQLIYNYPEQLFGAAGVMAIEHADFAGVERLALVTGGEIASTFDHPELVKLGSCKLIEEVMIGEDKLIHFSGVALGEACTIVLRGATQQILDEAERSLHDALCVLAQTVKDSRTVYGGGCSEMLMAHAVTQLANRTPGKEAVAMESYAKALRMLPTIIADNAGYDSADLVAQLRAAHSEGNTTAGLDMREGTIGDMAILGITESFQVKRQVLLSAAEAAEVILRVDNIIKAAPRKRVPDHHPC
SEL1L (human), sequence (Q9UBV2 22-794 limits assumed): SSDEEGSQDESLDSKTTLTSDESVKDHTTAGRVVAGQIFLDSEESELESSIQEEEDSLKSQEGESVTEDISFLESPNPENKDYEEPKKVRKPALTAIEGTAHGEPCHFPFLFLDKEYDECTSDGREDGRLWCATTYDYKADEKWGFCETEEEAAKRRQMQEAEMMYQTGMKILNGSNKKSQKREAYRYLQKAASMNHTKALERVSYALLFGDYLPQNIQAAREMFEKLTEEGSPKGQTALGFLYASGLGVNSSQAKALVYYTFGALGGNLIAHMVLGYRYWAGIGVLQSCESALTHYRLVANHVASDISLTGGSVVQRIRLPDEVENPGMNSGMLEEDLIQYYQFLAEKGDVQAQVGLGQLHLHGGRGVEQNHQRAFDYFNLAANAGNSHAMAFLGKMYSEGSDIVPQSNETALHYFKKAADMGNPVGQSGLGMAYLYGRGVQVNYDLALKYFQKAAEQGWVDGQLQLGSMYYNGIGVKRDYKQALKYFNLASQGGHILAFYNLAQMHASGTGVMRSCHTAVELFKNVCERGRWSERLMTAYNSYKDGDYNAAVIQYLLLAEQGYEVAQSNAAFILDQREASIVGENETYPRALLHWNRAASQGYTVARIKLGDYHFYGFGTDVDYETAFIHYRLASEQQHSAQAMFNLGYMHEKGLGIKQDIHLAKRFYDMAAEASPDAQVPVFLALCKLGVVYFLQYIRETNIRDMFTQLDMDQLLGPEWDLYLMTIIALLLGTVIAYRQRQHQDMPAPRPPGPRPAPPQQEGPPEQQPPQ
MYO1C (human), sequence (O00159 other isoform, or with tags, fused parts or gaps limits assumed): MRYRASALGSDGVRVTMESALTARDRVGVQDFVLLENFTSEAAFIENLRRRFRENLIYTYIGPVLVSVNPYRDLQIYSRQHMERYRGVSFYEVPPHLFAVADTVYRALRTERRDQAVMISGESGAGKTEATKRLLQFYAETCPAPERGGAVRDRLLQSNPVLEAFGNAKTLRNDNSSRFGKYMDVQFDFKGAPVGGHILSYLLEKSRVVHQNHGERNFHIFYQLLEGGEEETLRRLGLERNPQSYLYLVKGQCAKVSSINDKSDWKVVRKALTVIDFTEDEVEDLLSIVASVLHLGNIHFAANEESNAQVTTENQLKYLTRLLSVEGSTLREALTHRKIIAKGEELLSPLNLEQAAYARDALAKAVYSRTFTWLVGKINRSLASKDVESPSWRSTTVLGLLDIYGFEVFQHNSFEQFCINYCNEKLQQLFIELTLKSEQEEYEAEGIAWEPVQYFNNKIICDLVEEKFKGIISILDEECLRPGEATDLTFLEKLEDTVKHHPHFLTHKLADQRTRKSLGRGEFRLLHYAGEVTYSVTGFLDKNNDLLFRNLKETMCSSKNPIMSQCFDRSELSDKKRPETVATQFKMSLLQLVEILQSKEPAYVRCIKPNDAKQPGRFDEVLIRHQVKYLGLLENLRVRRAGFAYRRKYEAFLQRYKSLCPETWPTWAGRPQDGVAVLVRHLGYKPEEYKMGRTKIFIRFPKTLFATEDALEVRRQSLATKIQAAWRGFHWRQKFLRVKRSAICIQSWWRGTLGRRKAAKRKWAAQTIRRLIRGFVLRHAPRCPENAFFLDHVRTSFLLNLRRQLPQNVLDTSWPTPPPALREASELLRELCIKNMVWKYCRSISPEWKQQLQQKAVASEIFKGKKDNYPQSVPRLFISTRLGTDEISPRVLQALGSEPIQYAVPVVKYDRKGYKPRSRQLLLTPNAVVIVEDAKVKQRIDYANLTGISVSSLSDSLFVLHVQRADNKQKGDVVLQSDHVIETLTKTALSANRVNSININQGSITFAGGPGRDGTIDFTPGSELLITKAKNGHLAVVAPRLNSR
HADHB (human), sequence (P55084 34-474 limits assumed): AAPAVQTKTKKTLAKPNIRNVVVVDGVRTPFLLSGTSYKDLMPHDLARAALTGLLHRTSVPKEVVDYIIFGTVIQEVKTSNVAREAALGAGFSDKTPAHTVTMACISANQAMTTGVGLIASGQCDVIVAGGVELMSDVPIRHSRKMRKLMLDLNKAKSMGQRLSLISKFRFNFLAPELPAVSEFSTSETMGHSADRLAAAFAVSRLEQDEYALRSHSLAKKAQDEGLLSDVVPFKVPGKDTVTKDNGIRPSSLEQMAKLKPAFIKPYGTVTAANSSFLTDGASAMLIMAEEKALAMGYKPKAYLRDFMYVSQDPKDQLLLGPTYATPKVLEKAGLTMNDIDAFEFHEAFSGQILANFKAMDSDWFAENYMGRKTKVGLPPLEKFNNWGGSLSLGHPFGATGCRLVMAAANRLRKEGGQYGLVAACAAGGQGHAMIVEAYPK
TOR1AIP2 (human), sequence (Q8NFQ8 2-470 limits assumed): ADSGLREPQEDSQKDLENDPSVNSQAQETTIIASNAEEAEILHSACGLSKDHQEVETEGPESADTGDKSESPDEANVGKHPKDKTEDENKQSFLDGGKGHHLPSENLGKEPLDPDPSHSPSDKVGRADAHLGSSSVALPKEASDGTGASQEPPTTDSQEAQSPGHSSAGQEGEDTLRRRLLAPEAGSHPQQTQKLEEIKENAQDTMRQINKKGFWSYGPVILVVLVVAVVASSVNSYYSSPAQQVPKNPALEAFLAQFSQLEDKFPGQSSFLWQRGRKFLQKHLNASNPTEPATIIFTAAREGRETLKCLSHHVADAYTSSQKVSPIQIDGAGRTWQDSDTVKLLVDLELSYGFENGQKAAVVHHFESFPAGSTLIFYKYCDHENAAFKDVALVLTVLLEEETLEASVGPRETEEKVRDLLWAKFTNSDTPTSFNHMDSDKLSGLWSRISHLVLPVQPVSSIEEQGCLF

## C-terminal FLAG tagged B3GNT2 (from UniProt Q9NY97 1-397) (enzyme)
ARPC4 (human)
  co-IP mass spectrometry count: 3
RPL4 (human)
  co-IP mass spectrometry count: 36
CSE1L (human)
  co-IP mass spectrometry count: 3
RPL10 (human)
  co-IP mass spectrometry count: 15
KRT4 (human)
  co-IP mass spectrometry count: 37
RPL13 (human)
  co-IP mass spectrometry count: 23
HADHB (human)
  co-IP mass spectrometry count: 3
SPTAN1 (human)
  co-IP mass spectrometry count: 3
EIF5B (human)
  co-IP mass spectrometry count: 3
HSPA8 (human)
  co-IP mass spectrometry count: 49
PARP1 (human)
  co-IP mass spectrometry count: 3
MYO1C (human)
  co-IP mass spectrometry count: 3
EPRS (human)
  co-IP mass spectrometry count: 4
RRP12 (human)
  co-IP mass spectrometry count: 2
MSN (human)
  co-IP mass spectrometry count: 4
STAU2 (human)
  co-IP mass spectrometry count: 2
RPS4X (human)
  co-IP mass spectrometry count: 23
TOR1AIP2 (human)
  co-IP mass spectrometry count: 2
SEL1L (human)
  co-IP mass spectrometry count: 5
IPO13 (human)
  co-IP mass spectrometry count: 2
SDF4 (human)
  co-IP mass spectrometry count: 7
MAGT1 (human)
  co-IP mass spectrometry count: 2
SLC25A5 (human)
  co-IP mass spectrometry count: 30
CCT2 (human)
  co-IP mass spectrometry count: 2
GANAB (human)
  co-IP mass spectrometry count: 8
ILF3 (human)
  co-IP mass spectrometry count: 5
ARHGEF2 (human)
  co-IP mass spectrometry count: 2
RARS (human)
  co-IP mass spectrometry count: 2
